Results on four molecules are retold here after patent US9974865B2, “Antibody drug conjugates (ADC) that bind to FLT3 proteins” (AGENSYS, INC., priority 2015, dated 2018).

In data set [1] the test system is Raji cells. Briefly: ADCC assay (CytoTox 96, LDH release), positive control cell line. The class given is cell-based, human. The conditions noted are these: E:T=100:1, 2.5 ug/mL, 4 hours. For orientation: Release of lactate dehydrogenase indicates damage to the cell membrane.
In data set [2] the test system is EOL-1 cells. Briefly: EOL-1 growth with human FLT3 ligand and antibody (Cell Titer Glo, 5 days). The class given is cell-based. The method, then:
The ability of FLT3 antibodies (CHv62.21 and v62-1b37.1) to mediate the effect of human FLT3 ligand was evaluated using the human leukemia EOL-1 cell line, which endogenously expresses FLT3. Isotype control antibody (mLys-1c3.1) was also used. […] The next day, cells were treated with 50, 10 or 5 ng/mL of human FLT3 ligand (in 25 μl of complete media) and 10, 1, 0.1 and 0 μg/mL of test antibody (in 25 μl of complete media). Media alone was used as the untreated control. […] At the end of the incubation period, 100 μl of Cell Titer Glo was added to each well and incubated for 30 minutes, shaking, at room temperature.
Background: Cellular ATP, detected with luciferase, serves as a proxy for viable cell number.

In data set [3] the target is cell surface FLT3 (Homo sapiens, UniProt P36888). Briefly: Binding to cell surface FLT3 by flow cytometry. An excerpt:
To express CHv62.21 MAb recombinantly in transfected cells, v62.21 hybridoma MAb variable heavy and light chain sequences were cloned upstream of the human heavy chain IgG1 and human light chain Igκ constant regions respectively. The complete CHv62.21 MAb human heavy chain and light chain cassettes were cloned downstream of the CMV promoter/enhancer in a cloning vector. The recombinant CHv62.21 MAb expressing construct was transfected into CHO cells for stable expression in the Lonza GS system (Lonza, Basel, Switzerland). The CHv62.21 MAb secreted from recombinant CHO cells was purified and evaluated for binding to cell surface FLT3 by flow cytometry.
To express CHv62.21pAF recombinantly in transfected cells, v62-1b21 hybridoma MAb variable heavy and light chain sequences were cloned upstream of the human heavy chain IgG1 and human light chain Igκ constant regions respectively. The complete CHv62.21 MAb human heavy chain and light chain cassettes were cloned downstream of the CMV promoter/enhancer in a cloning vector. […] The CHv62.21pAF secreted from the stable subclone was purified and evaluated for binding to cell surface FLT3 by flow cytometry.

The subject of data set [4] is RS-4-11 cells. It counts as cell-based, human.
Procedure: Briefly, The RS-4-11 cells were seeded in 50 μl of complete media at a density of 3000 cells per well onto 96 well plates and placed in a tissue culture incubator at 37° C.; 5% CO2. The next day, the ADCs were prepared in complete media at 10 μg/mL and serially diluted 1:5 for a total of 9 points. […] At the end of the incubation period, 20 μl of Presto Blue was added to each well and incubated for 2 hours. The plates were read using a BioTek Synergy H4 plate reader using 540 Excitation and 590 Emission wavelengths and graphed using Graphpad Prism software.

In the case of Rituximab, in data set [1], the ADCC activity result is “confirms ADCC activity”.

B1: Human FLT3 ligand: human FLT3 ligand purchased from R and D Systems (protein)
chain: TQDCSFQHSPISSDFAVKIRELSDYLLQDYPVTVASNLQDEELCGGLWRLVLAQRWMERLKTVAGSKMQGLLERVNTEIHFVTKCAFQPPPSCLRFVQTNISRLLQETSEQLVALKPWITRQNFSRCLELQCQPDSSTLPPPWSPRPLEATAPTAPQPP
On to B1, for which the “effect on growth, FLT3 ligand alone” value in data set [2] is reported as “no effect on growth”.

B2: v62-1b21: hybridoma FLT3 MAb from VelocImmune mice, fully human variable regions and mouse constant regions (antibody, V domains shown)
VH: EVQLVESGGGLVRPGGSLRLSCAASGFTFSGYSINWVRQAPGKGLEWVSSISSSSNYIYYADSVKGRFTISRDNAKNSLYLQMNSLRAEDTAVYYCAREGFIAGTTFDAFDIWGQGTMVTVSS
VL: DIQMTQSPSSLSASVGDRVTITCRASQGIRNDLGWYQQKPGKAPKRLIYAASSLQSGVPSRFSGSGSGTEFTLTISSLQPEDFATYYCLQHNGFPYTFGQGTKLEIKR
For the molecule B2, the “binding to cell surface FLT3” value in data set [3] is “specifically binds to Flt3 protein and Flt3 expressing cells”.

B3: v62-1b21.1-AGL-0129-08 (conjugate)
VH: EVQLVESGGGLVRPGGSLRLSCAASGFTFSGYSINWVRQAPGKGLEWVSSISSSSNYIYYADSVKGRFTISRDNAKNSLYLQMNSLRAEDTAVYYCAREGFIAGTTFDAFDIWGQGTMVTVSS
VL: DIQMTQSPSSLSASVGDRVTITCRASQGIRNDLGWYQQKPGKAPKRLIYAASSLQSGVPSRFSGSGSGTEFTLTISSLQPEDFATYYCLQHNGFPYTFGQGTKLEIKR
In the case of B3, in data set [4], the cytotoxicity entry is “can induce cytotoxicity”.
